Reference: a protein production outcome set (Wang et al. 2014)

Assay: label from the status in PepcDB records

| Sequence | protein production |
| --- | --- |
| MARRYAIYDVFTERRLAGNPLAVVFEAEGLAEEAMQAIAQEFNLSETVFILRPGNAAHSARLRIFTPAHELPFAGHPTVGAAVAIAEAAYGEANSALELMQVLEESVGPVRAAVRLKPGAATFAEFDLPRKPIRLHAQLDRQEIADALALKTTQVGFENHVPSFWSAGVPFVMIPLRDVGAAASVEFDPQRWEHLAPLAEGRLAAAYLYCRGGINHTARFHARMFAPGMGLAEDPATGSAVAALSGAINFFDGLVDGHHPMLIEQGVEMGRPSFIHLHLDIAEGKIAGARIGGHAVKVAEGELAV | failed |
| MARVAIPSVGKDLSSMVSDRFARAEYFIIYDTESGNVEVVENTIADAHGTGPKVVQSLVSKGVEYLIASNVGRNAFETLKAAGVKVYRFEGGTVQEAIDAFSEGRLEELTTFTREG | not failed |
| MARVARWFLAVETVAFLGAAGVHAGVLWRGHEHARAATAETVIGVVLGLALLAAAARPRWSRRAAIGAQAFALLGTAVGLFTIAIGVGPRTAPDLAFHVAIVATLVVGLLRLARPTAGLREATP | failed |
| MARVLVSSPSSFFGSPLIKPSSSLRHSGVGGGGTAQFLPYRSNNNKLFTTSTTVRFSLNEIPPFHGLDSSVDIGAIFTRAESLLYTIADAAVVGADSVVTTDSSAVQKSGGWFGFISDAMELVLKILKDGLSAVHVPYAYGFAIILLTIIVKAATYPLTKQQVESTLAMQNLQPKIKAIQQRYAGNQERIQLETSRLYKQAGVNPLAGCLPTLATIPVWIGLYQALSNVANEGLFTEGFFWIPSLGGPTSIAARQSGSGISWLFPFVDGHPPLGWYDTVAYLVLPVLLIASQYVSMEIMKPPQTDDPAQKNTLLVFKFLPLMIGYFALSVPSGLSIYWLTNNVLSTAQQVYLRKLGGAKPNMDENASKIISAGRAKRSIAQPDDAGERFRQLKEQEKRSKKNKAVAKDTVELVEESQSESEEGSDDEEEEAREGALASSTTSKPLPEVGQRRSKRSKRKRTV | failed |
| MARVQIDLPDKFIYSTKLQVRIGDVAAGFHMGNHMLISYLNEALLLFFREAGVIGMFGTKMNLIDADLAVIYKTEAAHGDMLRVDLGIIPSGIYGFDAFYRVTNERTGEEIAIAKMAMLFFDYEQRQISPVPEAFTVALPKIYNRAIPSTE | failed |
| MARVTVMIPTQRRPDGLAVAARSVFGQVGVDFAELELVIVDNDQVPSAKPVADALRKGAPCPVIYVNEKRPGVAFARNAGMARASGDFIAFLDDDEEAPSGWLAALLAAQERYDADVVFGPVKARAPAHIDQHRDYLERFFSRIGPAQAGVIDYHYGCGDSLIRRSALPDPVAPFAVERNFIGGEDDLLFGHMGAAGKRFAWEPAAWVWEDPVPSRLNLGYTIQRAFAYGQGPSAHCAAAEPRDNLGVARWMLIGVGQAAVFGLVAAVKWAVRAKDRAEWLDRAARGLGKTFWWGPFKIQFYGRTA | failed |
| MASADEKVVEEKASVISSLLDKAKGFFAEKLANIPTPEATVDDVDFKGVTRDGVDYHAKVSVKNPYSQSIPICQISYILKSATRTIASGTIPDPGSLVGSGTTVLDVPVKVAYSIAVSLMKDMCTDWDIDYQLDIGLTFDIPVVGDITIPVSTQGEIKLPSLRDFF | not failed |
| MASIQKLGNGWRYRVSYKDAGKYKTKTKGGFRTKKECELAAAELEKKLHVGMDISAGDRLFAEYMRTWFELYQNGKHSPEHDRNIERSVKLVEEHFPGVKMKELTREMYQKFINEISPKYATDTVKKRHTYIKACLQEAIQEGIIFKDPTYKVIIKGKKDTKNEELKYLNFNEVQKLVAETKKDLRPRYISRYVILFAIATGARFSEIMGITWDCVDFKNRTITINKTWDFKDTNDFSDTKNYASKRTITIDTETVDMLQTLKSEQNKKALQTGLRNKKNLVFVNTKMQLVSNNAVNKTLRTLCKAAKIKEITCHGLRHTHASMLLYKGVNIKYISRRLGHKDIVTTLQTYSHILDEMEQVESRVVDDTMKEIHGAKFVQKNF | failed |
| MASKSGSGGLREPPNEQAVLNMYEGKRSELSQIYSNITDLEMQVSEHSLVINAIQPLDQSRKCFRMIGGVLVERTIKEVLPAVQRNKDGLEEVVRKLYETLEKKKKDLTEFEAKYKIRITKQEDNKEGGNKKEGNAQGVLVGAASSSQ | failed |
| MASLAAVVRALLRRESQRATGYALREWTMLTARHLPYLQGQLTLGRIAAVGHLQRSTLGRSEWHTSSAPLFGEGRGRWHWGLSTSDVVDGSDHEHHSTETGGRELPSFKTGELGSDVDGDRAALEAWLAQIRDETSGWPELSLDALRDELDEELEGDDDDNDDDDDETYENEELLKALQEAVNRHRTPVVALVSGRVVHLRRTAAPKRSPRAGRVPRNEPQTTSRDTTKADANDNECT | not failed |
| MASLIMTTPFPGSVTACKKTNNLSVQRAFKVTCMQTEKPLEELYNVKVERKVSQKRLEELGVSRWSVWKTGKCKLPWDWQVDQLVYIEQGEVRVVPEGSKRYMQFLAGDLVRYPKWLEADLFFNAPYIERYCFKAYGDD | failed |
| MASSAVSLQSISMTTLNNLSCNQQFHRSSLLGSSKSFQNLGISSNGSDFSYPSSFTAKKNLTASRALSQNGNIENPRPSKVQELSVYEINELDRHSPKILKNAFSLMFGLGDLVPFTNKLYTGDLKKRVGITAGLCVVIEHVPEKKGERFEATYSFYFGDYGHLSVQGPYLTYEDSFLAITGGAGIFEGAYGQVKLQQLVYPTKLFYTFYLKGLANDLPLELTGTPVPPSKDIEPAPEAKALEPSGVISNYTN | not failed |
| MASSKQADPQTDARPLPQDFETALAELESLVSAMENGTLPLEQSLSAYRRGVELARVCQDRLAQAEQQVKVLEGDLLRPLDPAALDDE | not failed |
| MASSVILREDGFAPPKPSPTTHEKASTKGDRDGVECKNSDSEEECLVKKTVAAHTDYIYTQDLNLSP | failed |
| MASTNQELASALRMFSRFFDLIHQPLAVINERGEYVYYNQESADLDGYSIERAMGKHMLDVYPGMKETQSTMLSSLKKGVEYIGHYQIYYNARGQAVDYQHTTAPLYASDGGMVGVIEIGRNMSGVRRLQEQVVELNQLLYADHHEKHHAIITENPEMLSNIAKAKRLAASNIPVTIVGETGTGKELFSRLIHQCSKRANKPFIALNCGALPPTLIESTLFGTVRGAYTGAENSQGYLELANGGTLFLDELNAMPIEMQSKLLRFLQDKTFWRLGGQQQLHSDVRIVAAMNEAPVKLIQQERLRADLFYRLSVGMLTLPPLRARPEDIPLLANYFIDKYRNDVPQDIHGLSETARADLLNHAWPGNVRMLENAIVRSMIMQEKDGLLKHIIFEQDELNLGVPETAPENPLPSSPDPQYEGSLEVRVANYERHLIETALDTHQGNIAAAARSLNVSRTTLQYKVQKYAIRFGVVRN | failed |
| MASWLVLCRFVHFAVVLTLVGAWVFRPLLLGRDSAQSGHGAVHRQLDRLSRWLTLIGLGSGLCWLLLITASMAGSWSAALDPATVQLVLGKTFFGQVWTWHLLLNLLLLGLLLTPLGRRLPLQLGLGALLLATLAPVGHGAMLDGLAGQLLILNQVVHLSCVGIWLGGLLVLLLVLRQPPQASVEPLLRRFSGVGYGLVAGLLASGLINVRVLTGQWWPTPLFSGFALILLIKVLLVAGMLALALFNRLRIRGCDQRLASLRNSVQLEWLLGVAAVAAVSLLGTLPPMQVI | failed |
| MASYAELFDIGEDFAAFVGHGLATEQGAVARFRQKLESNGLPSALTERLQRIERRYRLLVAGEMWCPDCQINLAALDFAQRLQPNIELAIISKGRAEDDLRQRLALERIAIPLVLVLDEEFNLLGRFVERPQAVLDGGPQALAAYKAGDYLEHAIGDVLAIIEGAAR | not failed |
| MATAFSSLRARLFALLLLALLLLLAPLAWLSAREAERAASEDLRRALYTRLYLLQAEGVQDEERLLLELFRLAQLFGGGVGFVLREGEARFTQLGDWPLPPGLPAALAAEGVYQGVFRGTLYVVLAQGGLAYGLAVPLEGVSGLGQRLLARYALWGGGLLLGVFLLAALALSWTLRPLRDLEKALRARAPEDLSPLPDPGLAELRPVVAALNALFARVGRLLAELAEKEEAARRFARHASHELRTPLTALKGYLEVLRRKNEPRALEGALREAGRMEALLAGLLRLSRLEALPPQRVPLDLRAFLEAQGLEVQGEGRVLADPELLALAVENVLENARRHGRLPVRAELSREGEGVWVWLVDAGPGFPEDLLPRVLEPFVHGGKGTGLGLALVAAVARAHGGRVRVENRGGAGVGLYLPLAPLKVSPGVPFGEGG | not failed |
| MATAGSSYSVSTDHQVSSPLVNLGNVAGVCIMSNAWKVEQEPSLINFISAFLSANSFRLNFVSIPPDLIFNCGGVSIAFVFVTKWDFSNVASIFSRVKRLKGQFAQLYVVATLSTKEQSDSFMRSYFQYEMEFGKPAFVQVTDAEMGFEKIVKIAHSRGVCKQQKVASKLKVERKRTVQDTNIFIRFVTSIPNINKHDANTVMFTYEQVQVLYQAIGSIEAIAKASKEDILANTDLSSKKADTLTRFFQDPEFYLSPKFN | failed |
| MATATATSERFELAKHCSSRNWSKAIRVLDSLLAKESSILDICNRAFCYNQLELHKHVIKDCDKALLLEPFAIQAFILKGRALLALGRKQEAVLVLEQGYKSALQQTADVKQLLELEELLKDARREIDGILKSHATESPQETPAYHSEKSDEKSDKLDNHESGASSNGNSHESSSELGEQSKIVSFSKVASKASKQSDGNSDLCNGSVYKEKENGKCGSQINGYYESCKPCNGSDLHDNLAESSDRFGELSINGNKISIKSSKMSHKAEARCGISDESRKNKKYTIARISGTHSISVDFRLSRGIAQVNEGNYTKAISIFDKVLKEEPTYPEALIGRGTAYAFQRELESAIADFTKAIQSNPAASEAWKRRGQARAALGEYVEAVEDLTKALVFEPNSPDVLHERGIVNFKSKDFTAAVKDLSICLKQEKDNKSAYTYLGLAFASLGEYKKAEEAHLKSIQLDSNYLEAWLHLAQFYQELADHCKALECIEQVLQVDNRVWKAYHLRGLVFHGLGEHRKAIQELSIGLSIENTIECLYLRGSCYHAVGEYRDAVKDYDATVDVELDAVEKFVLQCLAFYQKELALYTASKVSSEFLCFDIDGDIDPMFKEYWCKRLHPKNVCEKVYRQPPLRESLKKGKLKKQDLAITKQKANILRFADLIGKRIQYDCPGFLPNKRQHRMAGLAVIEIAQKVSKAWRIEWRNSTKGTTKNGKKNRRRERTNILSQNRGGAGCSSSSFSETSTGYASLEDRSSGRSILSWQDVYSPAVRWRQISEPCDPVVWVNKLSEEFNSGFGSHTPMVLGQAKVVRYFPNYERTLTLAKSIIKDKLSVRSKKDKVIDLSKDEKIEKIMRAETCDELHNIVGEDFWVATWCDSTGSEGWVC | failed |
| MATDTTVQLRAGWQGRFYEDFAVGDVYKHPYGRTVTETDNVWFTNLTMNANPMHFNAAYASGTEFDERLVNGLFVIALSVGMSVVDVSANATANLGYDDIQHHAPVFHGDTLFAESEVLSKRESESRPHVGMVTTELRTYTQDGELVLSLERTPMVRKRGAADPLEHHHHHH | failed |
| MATEATTKFPESDLRPIPQPPDFHPAIIVPAQNTTLKFWQLMVAGSIAGSVEHMAMFPVDTVKTHMQALRSCPIKPIGIRQAFRSIIKTDGPSALYRGIWAMGLGAGPAHAVYFSFYEVSKKFLSGGNPNNSAAHAISGVFATISSDAVFTPMDMVKQRLQIGNGTYKGVWDCIKRVTREEGFGAFYASYRTTVLMNAPFTAVHFTTYEAVKRGLREMLPEHAVGAEDEEGWLIYATAGAAAGGLAAAVTTPLDVVKTQLQCQGVCGCDRFKSSSISDVFRTIVKKDGYRGLARGWLPRMLFHAPAAAICWSTYETVKSFFQDLNGEANAA | failed |
| MATEIGSPPRFFHMPRFQHQAPRQLFYKRPDFAQQQAMQQLTFDGKRMRKAVNRKTIDYNPSVIKYLENRIWQRDQRDMRAIQPDAGYYNDLVPPIGMLNNPMNAVTTKFVRTSTNKVKCPVFVVRWTPEGRRLVTGASSGEFTLWNGLTFNFETILQAHDSPVRAMTWSHNDMWMLTADHGGYVKYWQSNMNNVKMFQAHKEAIREASFSPTDNKFATCSDDGTVRIWDFLRCHEERILRDTCFHHCRCYFLSVKR | failed |
